Data: patent publication US20210246451, “APTAMER FOR ADAMTS5 AND USE FOR APTAMER FOR ADAMTS5” (RIBOMIC INC., published 2021)

T1: ADAMTS5 (UniProt Q9UNA0 Q9UNA0:262-622)
T1 sequence: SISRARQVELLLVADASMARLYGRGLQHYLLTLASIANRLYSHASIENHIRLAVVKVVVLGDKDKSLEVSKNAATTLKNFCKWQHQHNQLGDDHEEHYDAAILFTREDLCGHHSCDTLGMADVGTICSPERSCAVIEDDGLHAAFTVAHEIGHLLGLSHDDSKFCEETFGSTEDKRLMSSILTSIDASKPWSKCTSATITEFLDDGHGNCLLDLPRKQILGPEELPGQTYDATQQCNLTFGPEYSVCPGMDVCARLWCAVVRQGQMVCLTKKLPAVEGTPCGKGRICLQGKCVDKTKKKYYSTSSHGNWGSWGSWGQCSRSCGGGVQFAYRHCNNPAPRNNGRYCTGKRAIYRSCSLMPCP


Columns and labels:
Conditions in all cases: tags: R&D Systems
[1] = target: T1, ADAMTS5; experiment: inhibition; method 1
Description: (§1) Whether an aptamer having the nucleotide sequence shown in SEQ ID NO: 1 inhibits the enzyme activity of ADAMTS5 was evaluated by the following method. As a substrate of ADAMTS5, the G1-IGD-G2 domain of aggrecan (manufactured by R&D systems) was used. ADAMTS5 specifically cleaves in between the 392nd glutamic acid and the 393rd alanine in the G1-IGD-G2 domain and produces two fragments. These fragments have faster electrophoretic mobility than uncleaved G1-IGD-G2. Thus, the enzyme activity of ADAMTS5 can be measured by quantifying the band intensity of G1-IGD-G2 by SDS-PAGE electrophoresis. The assay was performed in a solution A buffer with a reaction mixture volume of 10 μL. First, a mixture (10 μL) of a nucleic acid and ADAMTS5 was prepared and incubated at 25° C. for 15 min. To a substrate solution (5 μL) diluted with solution A was added a mixture (5 μL) of the nucleic acid and ADAMTS5 to start the enzyme reaction. The final concentration of ADAMTS5 in the reaction solution was 5 nM, and the final substrate concentration was 50 μg/mL. The reaction solution was incubated at 37° C. for 2 hr, 2 μL of solution D was added, and the mixture was heated at 95° C. for 2 min to stop the enzyme reaction of ADAMTS5. Solution D contains 0.25 M tris (pH 6.8), 10% SDS, 50% glycerol, 0.25% bromo phenolblue, and 20% 2-mercaptoethanol. The heat-treated reaction solution was electrophoresed by 7.5% SDS-PAGE and stained with SYPRO Orange (manufactured by Sigma-Aldrich). The staining was performed according to the manual of Sigma-Aldrich and detected using STORM840 manufactured by GE Healthcare. […] The amount of uncleaved substrate in each reaction solution was quantified from the band intensity and the standard curve. The substrate cleavage efficiency of ADAMTS5 under these reaction conditions was 80-100%. The inhibition rate of the test substance was calculated using the following equation.
The aptamers having the sequences shown in SEQ ID NOs: 28(l)-28(18) (SEQ ID NO: 28 lineage) and SEQ ID NOs: 29(1)-29(3) (SEQ ID NO: 29 lineage) were all produced by chemical synthesis.

[2] = target: T1, ADAMTS5; experiment: inhibition; 10 nM
Description: as §1
The nucleic acids shown in SEQ ID NOs: 3(1)-3(16) were all produced by chemical synthesis. Whether these nucleic acids inhibit the enzyme activity of ADAMTS5 was determined by a method similar to that in Example 1.

[3] = target: T1, ADAMTS5; experiment: SPR; RU ratio >=40%

Binder	activity [1] [% inhibition]	activity [2] [% inhibition]	other results
CGUAGGGGCCUCCACAGCGUAAGCUUGGACUUAAACCACG (ssRNA, as SEQ 28 plus 2'-OMe at A4) [28(2)]	68.7	–	–
CGUAGGGGCCUCCACAGCGUAAGCUUGGACUUAAACCACG (ssRNA, as SEQ 28 plus 2'-F at G8) [28(8)]	71.1	–	–
CGUAGGGGCCUCCACAGCGUAAGCUUGGACUUAAACCACG (ssRNA, as SEQ 28 plus 2'-F at A33) [28(12)]	67.8	–	–
CGUAGGGGCCUCCACAGCGUAAGCUUGGACUUAAACCACG (ssRNA, as SEQ 28 plus 2'-F at G28) [28(10)]	76.6	–	–
CGUAGGGGCCUCCACAGCAUUCGCUUGGACACAAACCACG (ssRNA, as SEQ 29 plus 2'-F at G7,G28; 3' idT) [29(3)]	80.9	–	–
CGUAGGGGCCUCCACAGCGUAAGCUUGGACUUAAACCACG (ssRNA, as SEQ 28 plus 2'-F at A4) [28(6)]	76.8	–	–
CGUAGGGGCCUCCACAGCGUAAGCUUGGACUUAAACCACG (ssRNA, as SEQ 28 plus 2'-OMe at 4,20-22) [28(5)]	77.3	–	–
CGUAGGGGCCUCCACAGCGUAAGCUUGGACUUAAACCACG (ssRNA, as SEQ 28 plus 2'-OMe at 4,20-22,31; 3' idT) [28(13)]	86.1	–	–
CGUAGGGGCCUCCACAGCGUAAGCUUGGACUUAAACCACG (ssRNA, as SEQ 28 plus 2'-OMe at 4,20-22,31; 2'-F at G7,G28; 3' idT) [28(14)]	90.6	–	–
CGUAGGGGCCUCCACAGCGUAAGCUUGGACUUAAACCACG (ssRNA, as SEQ 28 plus 2'-F at G7) [28(7)]	84.1	–	–
CGUAGGGGCCUCCACAGCAUUCGCUUGGACACAAACCACG (ssRNA, as SEQ 29 plus 2'-F at G7,G28 and 2'-OMe at A31; 3' idT) [29(2)]	89.8	–	–
CGUAGGGGCCUCCACAGCGUAAGCUUGGACUUAAACCACG (ssRNA, as SEQ 28 plus 2'-F at A14) [28(9)]	69.7	–	–
CGUAGGGGCCUCCACAGCGUAAGCUUGGACUUAAACCACG (ssRNA, as SEQ 28 plus 2'-F at A29) [28(11)]	42.6	–	–
GGAUUGGGGCCUCCACAGCUGCUCAGCUUGGACUAAACCAAUCC (ssRNA, 2'-OMe at 1-7,17-28,36,38-44; 2'-F other pyrimidines) [3(8)]	–	52.8	–
GGAUUGGGGCCUCCACAGCUGCUCAGCUUGGACUAAACCAAUCC (ssRNA, 2'-OMe at 1-7,17-28,31,36,38-44; 2'-F other pyrimidines) [3(13)]	–	37	–
GGAUUGGGGCCUCCACAGCUGCUCAGCUUGGACUAAACCAAUCC (ssRNA, 2'-OMe at 1-7,9,17-28,36,38-44; 2'-F other pyrimidines) [3(10)]	–	25.6	–
GGAUUGGGGCCUCCACAGCUGCUCAGCUUGGACUAAACCAAUCC (ssRNA, 2'-OMe at 1-7,17-28,32,36,38-44; 2'-F other pyrimidines) [3(14)]	–	1.2	–
GGAUUGGGGCCUCCACAGCUGCUCAGCUUGGACUAAACCAAUCC (ssRNA, 2'-OMe at 1-7,15,17-28,36,38-44; 2'-F other pyrimidines) [3(11)]	–	48.1	–
GGAUUGGGGCCUCCACAGCUGCUCAGCUUGGACUAAACCAAUCC (ssRNA, 2'-OMe at 1-8,17-28,36,38-44; 2'-F other pyrimidines) [3(9)]	–	25.8	–
GGAUUGGGGCCUCCACAGCUGCUCAGCUUGGACUAAACCAAUCC (ssRNA, 2'-OMe at 1-7,17-28,30,36,38-44; 2'-F other pyrimidines) [3(12)]	–	57.5	–
GGAUUGGGGCCUCCACAGCUGCUCAGCUUGGACUAAACCAAUCC (ssRNA, 2'-OMe at 1-7,17-28,36-44; 2'-F other pyrimidines) [3(16)]	–	53.6	–
GGAUUGGGGCCUCCACAGCUGCUCAGCUUGGACUAAACCAAUCC (ssRNA, 2'-OMe at 1-7,17-28,35,36,38-44; 2'-F other pyrimidines) [3(15)]	–	27.6	–
GGGUAUUGGGGCCUCCACAGAAAAUUCUUGGACUAAACCAACUCGA (ssRNA, 2'-F pyrimidines) [SEQ ID NO: 43]	–	–	binding result [3]: binds
GGGUAUUGGGGCCUCCACAGAAAAGUCUUGGACUAAACCAACUCGA (ssRNA, 2'-F pyrimidines) [SEQ ID NO: 45]	–	–	binding result [3]: binds
GGGUAUUGGGGCCUCCACAGAACUUUCUUGGACUAAACCAACUCGA (ssRNA, 2'-F pyrimidines) [SEQ ID NO: 44]	–	–	binding result [3]: binds
